Values quoted from earlier work, collected in publication PMC7763558.

Columns and labels:
Test in all cases: SPR
[1] = biological target: BPTI (unfolded client) (Bos taurus) (UniProt P00974)
[2] = biological target: BPTI (native client) (Bos taurus) (UniProt P00974)
[3] = biological target: BPTI (partially folded client) (Bos taurus) (UniProt P00974)

Kd [1]: 3 µM
Kd [2]: 394 µM
Kd [3]: 14 µM
Substance: PDI (from UniProt P07237)
